What is called stoichiometry N is the number of molecules, sites or subunits per partner or assembly.

Results on 2 proteins are retold here after publication doi:10.1101/2020.11.04.368837 (bioRxiv, 2020).

The data set “AUC” concerns the molecule itself. The experiment in a line: AUC.
The data set “native gel or EMSA” deals with the molecule itself. The experiment in a line: native gel or EMSA. On the technique in general: Mobility shift assays separate free from complexed probe on a gel.
Data set [1] deals with the molecule itself. The experiment in a line: single-particle cryo-EM, 2D class averages.

B1: recombinant human TRAP1 (mitochondrial Hsp90), wild type (natural protein, UniProt Q12931 60-704, looked up)
chain: STQTAEDKEEPLHSIISSTESVQGSTSKHEFQAETKKLLDIVARSLYSEKEVFIRELISNASDALEKLRHKLVSDGQALPEMEIHLQTNAEKGTITIQDTGIGMTQEELVSNLGTIARSGSKAFLDALQNQAEASSKIIGQFGVGFYSAFMVADRVEVYSRSAAPGSLGYQWLSDGSGVFEIAEASGVRTGTKIIIHLKSDCKEFSSEARVRDVVTKYSNFVSFPLYLNGRRMNTLQAIWMMDPKDVREWQHEEFYRYVAQAHDKPRYTLHYKTDAPLNIRSIFYVPDMKPSMFDVSRELGSSVALYSRKVLIQTKATDILPKWLRFIRGVVDSEDIPLNLSRELLQESALIRKLRDVLQQRLIKFFIDQSKKDAEKYAKFFEDYGLFMREGIVTATEQEVKEDIAKLLRYESSALPSGQLTSLSEYASRMRAGTRNIYYLCAPNRHLAEHSPYYEAMKKKDTEVLFCFEQFDELTLLHLREFDKKKLISVETDIVVDHYKEEKFEDRSPAAECLSEKETEELMAWMRNVLGSRVTNVKVTLRLDTHPAMVTVLEMGAARHFLRMQQLAKTQEERAQLLQPTLEINPRHALIKKLNQLRASEPGLAQLLVDQIYENAMIAAGLVDDPRAMVGRLNELLVKALERH
For the protein B1, in “AUC”, the “ratio between dimer and tetramer population” value is 7 dimer:tetramer (7:1). In the data set “native gel or EMSA”, the “stoichiometry N” value is 4.

B2: TRAP1 fused with SpyCatcher at the C-terminus (TRAP1_(SpyCatcher)) (natural protein, human, UniProt Q12931 60-704, looked up)
chain: B1 chain
As for B2, in data set [1], the “stoichiometry N” value came out at 4.
